The chains are these.
B1: AAV-binding protein No. 109 (AVR8g + Glu360Lys) (receptor)
chain: MGSAGESDQITLPKNEVQLNAYVLQEPPKGETCTYDWQLITHPRDYSGEMKGEHSQILKLSNLTPGLYEFKVIVEGQNAHSEGYVNVTVEPEPRKNRPPIAIVSPQFQEISLPTTSTVIDGSQSTDDDKIVQYHWEELKGPLREEKISEDTAILKLSKLVPGNYTFRLTVVDSDGATDSTTANLTVNKAVDHHHHHH
B2: AAV-binding protein No. 118 (AVR8g + Glu378Gly) (receptor)
chain: B1 chain with K51E, E69G
B3: AAV-binding protein No. 110 (AVR8g + Glu360Val) (receptor)
chain: B1 chain with K51V
B4: AAV-binding protein No. 122 (AVR8g + Gln386Arg) (receptor)
chain: B1 chain with K51E, Q77R
B5: AAV-binding protein No. 128 (AVR8g + Ser312Pro, Pro374Leu) (receptor)
chain: B1 chain with S3P, K51E, P65L
B6: AAV-binding protein No. 132 (AVR8g + Gln327His, Glu378Val) (receptor)
chain: B1 chain with Q18H, K51E, E69V
B7: AAV-binding protein No. 139 (AVR8g + Leu369Gln, Pro374Leu) (receptor)
chain: B1 chain with K51E, L60Q, P65L
B8: AAV-binding protein No. 142 (AVR8g + Glu378Gly, Arg403His) (receptor)
chain: B1 chain with K51E, E69G, R94H
B9: AAV-binding protein No. 125 (AVR8g + His443Leu) (receptor)
chain: B1 chain with K51E, H134L
B10: AAV-binding protein No. 116 (AVR8g + Thr373Ala) (receptor)
chain: B1 chain with K51E, T64A
B11: AAV-binding protein No. 133 (AVR8g + Gln327Leu, Lys(Asn)371Asp) (receptor)
chain: B1 chain with Q18L, K51E, N62D
notes: Asn371 of AVR8g replaced by Asp
B12: AAV-binding protein No. 135 (AVR8g + Glu335Gly, Gln386Arg) (receptor)
chain: B1 chain with E26G, K51E, Q77R
B13: AAV-binding protein No. 114 (AVR8g + Leu372Pro) (receptor)
chain: B1 chain with K51E, L63P
B14: AAV-binding protein No. 121 (AVR8g + Val381Ala) (receptor)
chain: B1 chain with K51E, V72A
B15: AAV-binding protein No. 115 (AVR8g + Leu372Gln) (receptor)
chain: B1 chain with K51E, L63Q
B16: AAV-binding protein No. 119 (AVR8g + Phe379Ser) (receptor)
chain: B1 chain with K51E, F70S
B17: AAV-binding protein No. 126 (AVR8g + Lys448Glu) (receptor)
chain: B1 chain with K51E, K139E
B18: AAV-binding protein No. 147 (AVR8g + Phe379Cys, Gln432Leu, Ser488Leu) (receptor)
chain: B1 chain with K51E, F70C, Q123L, S179L
B19: AAV-binding protein No. 137 (AVR8g + Thr341Pro, Phe379Ser) (receptor)
chain: B1 chain with T32P, K51E, F70S
B20: AAV-binding protein No. 134 (AVR8g + Asn329Ile, Val499Ile) (receptor)
chain: B1 chain with N20I, K51E, V190I
B21: AAV-binding protein No. 138 (AVR8g + Gly361Cys, Gly(Ser)390Gly) (receptor)
chain: B1 chain with K51E, G52C, S81G
notes: Gly(Ser)390Gly read as Ser390 of AVR8g back to the wild-type Gly, so Gly390Ser is not applied
B22: AAV-binding protein No. 146 (AVR8g + Leu372Gln, Leu376Pro, Val394Asp) (receptor)
chain: B1 chain with K51E, L63Q, L67P, V85D
B23: AAV-binding protein No. 129 (AVR8g + Ala313Ser, Glu378Gly) (receptor)
chain: B1 chain with A4S, K51E, E69G
B24: AAV-binding protein No. 111 (AVR8g + Lys(Glu)362Gly) (receptor)
chain: B1 chain with K51E, E53G
notes: Glu362 of AVR8g replaced by Gly
B25: AAV-binding protein No. 113 (AVR8g + Ile366Thr) (receptor)
chain: B1 chain with K51E, I57T
B26: AAV-binding protein No. 117 (AVR8g + Leu376Pro) (receptor)
chain: B1 chain with K51E, L67P
B27: AAV-binding protein No. 141 (AVR8g + Leu376Pro, Gly(Ser)390Gly) (receptor)
chain: B1 chain with K51E, L67P, S81G
notes: as for B21
B28: AAV-binding protein No. 127 (AVR8g + Asp483Asn) (receptor)
chain: B1 chain with K51E, D174N
B29: AAV-binding protein No. 140 (AVR8g + Leu372Pro, Val396Ala) (receptor)
chain: B1 chain with K51E, L63P, V87A
B30: AAV-binding protein No. 112 (AVR8g + Ser364Leu) (receptor)
chain: B1 chain with K51E, S55L
B31: AAV-binding protein No. 120 (AVR8g + Lys380Glu) (receptor)
chain: B1 chain with K51E, K71E
B32: AAV-binding protein No. 148 (AVR8g + Glu384Val, Gln432Arg, Ile456Val) (receptor)
chain: B1 chain with K51E, E75V, Q123R, I147V
B33: AAV-binding protein No. 131 (AVR8g + Asn324Ser, Gly357Cys) (receptor)
chain: B1 chain with N15S, G48C, K51E
B34: AAV-binding protein No. 124 (AVR8g + Gln441Arg) (receptor)
chain: B1 chain with K51E, Q132R
B35: AAV-binding protein No. 144 (AVR8g + Val383Ala, Gln415Arg) (receptor)
chain: B1 chain with K51E, V74A, Q106R
B36: AAV-binding protein No. 145 (AVR8g + Trp346Cys, Arg353Cys, His389Arg) (receptor)
chain: B1 chain with W37C, R44C, K51E, H80R
B37: AAV-binding protein No. 130 (AVR8g + Lys323Arg, Glu384Val) (receptor)
chain: B1 chain with K14R, K51E, E75V
B38: AAV-binding protein No. 136 (AVR8g + Glu335Val, Thr343Ser) (receptor)
chain: B1 chain with E26V, T34S, K51E
B39: AAV-binding protein No. 123 (AVR8g + Tyr393Cys) (receptor)
chain: B1 chain with K51E, Y84C

Positions count from the first letter of the chain named.

The assay deals with T1, VLP2 (virus-like particles of AAV2) (AAV2, UniProt P03135 1-735; P03135 1-598; P03135 1-533).
T1 construct: Empty AAV2 capsid; background says about 60 protein molecules, VP1:VP2:VP3 = 1:1:10; Immobilised on the ELISA plate
T1 sequence (P03135 whole entry, chain 1 of 3): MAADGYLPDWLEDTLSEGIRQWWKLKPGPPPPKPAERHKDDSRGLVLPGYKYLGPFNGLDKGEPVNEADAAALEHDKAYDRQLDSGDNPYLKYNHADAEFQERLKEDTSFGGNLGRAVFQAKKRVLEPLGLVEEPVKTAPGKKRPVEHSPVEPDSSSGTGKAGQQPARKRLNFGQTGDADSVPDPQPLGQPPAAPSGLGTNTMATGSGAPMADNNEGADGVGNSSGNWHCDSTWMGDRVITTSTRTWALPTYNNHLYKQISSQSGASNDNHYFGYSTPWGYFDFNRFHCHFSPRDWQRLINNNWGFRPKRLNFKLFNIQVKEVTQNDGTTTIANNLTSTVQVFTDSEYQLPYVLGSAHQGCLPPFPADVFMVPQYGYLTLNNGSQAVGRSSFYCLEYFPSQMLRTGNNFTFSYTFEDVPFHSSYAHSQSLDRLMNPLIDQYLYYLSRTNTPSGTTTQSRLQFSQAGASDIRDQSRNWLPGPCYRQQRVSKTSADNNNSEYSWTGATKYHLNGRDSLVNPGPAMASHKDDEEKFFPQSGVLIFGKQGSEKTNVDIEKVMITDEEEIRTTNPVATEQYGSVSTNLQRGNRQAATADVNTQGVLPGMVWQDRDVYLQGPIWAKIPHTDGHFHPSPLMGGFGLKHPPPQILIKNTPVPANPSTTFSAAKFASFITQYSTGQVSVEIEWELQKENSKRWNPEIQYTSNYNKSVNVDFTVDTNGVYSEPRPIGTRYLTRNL
T1 sequence (P03135 139-735, tags left off, chain 2 of 3): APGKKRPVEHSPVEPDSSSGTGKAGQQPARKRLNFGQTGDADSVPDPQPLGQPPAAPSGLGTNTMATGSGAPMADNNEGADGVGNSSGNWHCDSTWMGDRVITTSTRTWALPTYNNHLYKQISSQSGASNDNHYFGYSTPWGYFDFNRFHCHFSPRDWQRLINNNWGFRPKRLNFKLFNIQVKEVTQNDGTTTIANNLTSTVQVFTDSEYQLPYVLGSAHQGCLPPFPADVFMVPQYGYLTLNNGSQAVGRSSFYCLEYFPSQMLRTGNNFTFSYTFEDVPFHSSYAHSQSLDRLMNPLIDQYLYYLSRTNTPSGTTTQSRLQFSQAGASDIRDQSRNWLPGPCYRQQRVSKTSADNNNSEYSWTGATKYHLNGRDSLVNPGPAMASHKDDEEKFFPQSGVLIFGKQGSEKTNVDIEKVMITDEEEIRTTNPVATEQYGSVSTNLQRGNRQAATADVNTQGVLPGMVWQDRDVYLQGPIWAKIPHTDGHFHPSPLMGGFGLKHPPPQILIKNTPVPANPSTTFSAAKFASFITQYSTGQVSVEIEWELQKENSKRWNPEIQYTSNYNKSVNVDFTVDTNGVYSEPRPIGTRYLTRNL
T1 sequence (P03135 203-735, chain 3 of 3): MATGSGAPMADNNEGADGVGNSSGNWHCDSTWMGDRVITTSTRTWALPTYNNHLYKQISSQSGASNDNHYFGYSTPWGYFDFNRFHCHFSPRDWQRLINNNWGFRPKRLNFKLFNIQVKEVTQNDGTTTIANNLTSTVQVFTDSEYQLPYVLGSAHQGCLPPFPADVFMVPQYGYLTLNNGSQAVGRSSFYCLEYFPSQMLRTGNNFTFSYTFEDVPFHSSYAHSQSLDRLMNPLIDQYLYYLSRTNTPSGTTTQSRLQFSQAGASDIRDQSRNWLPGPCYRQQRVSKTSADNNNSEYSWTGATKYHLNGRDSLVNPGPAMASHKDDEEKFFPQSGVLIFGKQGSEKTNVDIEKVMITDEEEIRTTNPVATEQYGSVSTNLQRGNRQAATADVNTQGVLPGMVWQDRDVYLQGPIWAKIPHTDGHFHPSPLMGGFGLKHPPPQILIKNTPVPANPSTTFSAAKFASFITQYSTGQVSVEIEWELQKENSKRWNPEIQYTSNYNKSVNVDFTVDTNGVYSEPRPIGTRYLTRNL
Kind of assay: ELISA on VLP2; binding after pH 10.0 41.2°C 15 min / untreated.
For the molecule B1, the “Residual activity [%]” value is 40.2%.
Under B2 stands 66.7%; under B3, 33.3%.
Under B4 stands 34.9%.
With B5, the “Residual activity [%]” value came out at 74.9%.
Under B6 stands 56.5%; under B7, 85.2%.
Under B8 stands 76.6%; under B9, 36.5%.
In the case of B10, the “Residual activity [%]” value was 57.8%.
Under B11 stands 62.1%; under B12, 36.3%; under B13, 91.6%.
Under B14 stands 89.9%.
In the case of B15, the “Residual activity [%]” value was determined as 72.8%.
Under B16 stands 24.3%; under B17, 34.5%; under B18, 79.7%.
Under B19 stands 86.3%; under B20, 63.9%.
Under B21 stands 51.5%; under B22, 81.4%.
Turning to B23, the “Residual activity [%]” value stood at 67.5%.
Under B24 stands 41.1%.
Under B25 stands 41.4%.
Under B26 stands 76.7%; under B27, 85%.
As for B28, the “Residual activity [%]” value amounted to 23.3%.
Under B29 stands 92.8%; under B30, 45.3%.
Under B31 stands 59.5%.
Under B32 stands 37.4%.
As for B33, the “Residual activity [%]” value worked out at 70.3%.
Under B34 stands 25.2%; under B35, 65.7%; under B36, 63.5%.
Under B37 stands 63.1%; under B38, 38.8%; under B39, 60.5%.

The values are drawn from US20220402995A1 (TOSOH, published 2022).
